Data on one molecule can be found in patent US20160312265, “USE OF NUCLEIC ACID AGENTS FOR ULTRA-SENSITIVE DIGITAL DETECTION AND QUANTIFICATION OF TARGET MOLECULES” (Aptitude Medical Systems, Inc., published 2016).

The target in this series is TNFα (tumor necrosis factor alpha) (UniProt P01375 P01375:77-233). Put plainly: antibody-capture / aptamer-detection sandwich in ELISA wells, 5 nM aptamer, eluted at 95 C and counted by digital PCR; PBS, 0.05% Tween-20, 2.5 mM MgCl2, 1 mM CaCl2 wash; no numerical result in text. As to conditions: tags: Shenandoah Biotechnology 100-111; chain copies: 3 (inferred). On the procedure:
The ELISA wells (Thermo Scientific, Catalog #: 15031) were functionalized with a TNFα antibody (eBioscience, Catalog #: 14-7349-85) at 5 μg/ml in PBS overnight at 4° C. Right before use, the ELISA wells were blocked with 300 μL AptaBuffer (PBS+0.05% Tween-20+2.5 mM MgCl₂+1 mM CaCl₂+1% BSA+0.5 mg/mL Dextran Sulfate+0.1 mg/mL Salmon Sperm DNA) with gentle shaking at ˜500 RPM for at least 30 minutes.
Next, test samples (50 μL) containing the protein of interest (TNFα, Shenandoah Biotechnology, Catalog #: 100-111) were added to the washed ELISA wells and incubated for 1 hour with gentle shaking After the target-capture incubation, the ELISA wells were washed once with PBSMCT (PBS+0.05% Tween-20+2.5 mM MgCl₂+1 mM CaCl₂) and 5 nM of the detection TNFα aptamer was added to the wells and incubated for 30 minutes with gentle shaking. The ELISA plate was then washed 4 times with 300 μl of PBS-MCT after the incubation with the detection aptamer. In an embodiment, the sequence of TNFα aptamer is 5′-[…] […]-3′.
For the elution step, 100 μL of PCR grade water was added to each ELISA well. After heating the plate at 95° C. for 10 minutes, we transfer the 100 μL of eluent containing the detection aptamers into a new tube. The eluents are diluted 10 fold before they are measured by the QuantStudio® 3D Digital PCR System from Life Technologies.

Sequence of TNFα (tumor necrosis factor alpha) (P01375 77-233, one chain of several): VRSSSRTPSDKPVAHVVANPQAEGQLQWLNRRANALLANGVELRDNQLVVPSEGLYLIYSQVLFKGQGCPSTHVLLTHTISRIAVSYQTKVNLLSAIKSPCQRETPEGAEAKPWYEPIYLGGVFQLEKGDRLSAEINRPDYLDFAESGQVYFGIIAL

B1: TNFα detection aptamer (ssDNA)
DNA: ATCCAGAGTGACGCAGCATGCTTAAGGGGGGGGCGGGTTAAGGGAGTGGGGAGGGAGCTGGTGTGGACACGGTGGCTTAGT
Turning to B1, the binding result was “binds”.
